Assay results as given in patent publication US10034836B2, “Formulations of guanylate cyclase C agonists and methods of use” (SYNERGY PHARMACEUTICALS, INC., priority 2008, dated 2018).
Where no end group is shown, it is not given here. [ ]: non-standard residue; d: D form.

How the values were obtained:
[1] = test system: T84 cells; assay: cGMP synthesis in T84 cells, GCC agonist alone or in combination with PDE inhibitors; format: cell-based, human; conditions: 100 μM, 30 min
Description: FIG. 9: Stimulation of cGMP synthesis in T84 cells by SP-304 (0.1 μM) either alone or in combination with the phosphodiesterase (PDE) inhibitors Sulindac Sulfone (100 μM) or Zaprinast (100 μM). T84 cells were exposed to various treatments, as indicated, for 30 min and the cell lysates were used to determine the intracellular cGMP levels. Data points shown are the average of duplicate measurements.
FIG. 10: Stimulation of cGMP synthesis in T84 cells by SP-304 (0.1 or 1.0 μM) either alone or in combination with incremental concentrations of phosphodiesterase (PDE) inhibitors, as indicated. T84 cells were exposed to various treatments, as indicated, for 30 min and the cell lysates were used to determine the intracellular cGMP levels. Data points shown are the average of duplicate measurements. […]
SS and ZAP in combination with SP-304 or SP-333 were evaluated to see if these PDE inhibitors had any synergistic effects on intracellular accumulation of cGMP (FIG. 9-12). […]
For the results shown in FIG. 9, cyclic GMP synthesis in T84 cells was assessed essentially as described in Shailubhai et al., Cancer Research 60, 5151-5157 (2000). […] Following centrifugation and the addition of NaOH (0.1 N) to neutralize the pH, intracellular cGMP levels were determined in lysates using a cGMP ELISA kit (Cat. No. 581021; Cayman Chemical, Ann Arbor, Mich.). […]

[2] = Stability in simulated intestinal fluid (SIF), biological activity by cGMP synthesis in T84 cells; format: in vitro ADME; conditions: SIF, two hour incubation (FIG. 7A)
Description: FIG. 2A: Biological activity of SP-304 incubated for varying lengths of time in simulated intestinal fluid (SIF). SP-304 samples were incubated for 0, 30, 60, 90, 150, and 300 min, respectively, and then tested for their ability to stimulate cGMP synthesis in T84 cells. The cGMP stimulation activity in the sample at 0 min of incubation time in SIF was taken as 100% biological activity. The activities of the other SP-304 incubation samples were calculated as the percentage of activity relative to that of the 0 min sample. Data points shown are the average of triplicate measurements±SD.
(§1) FIG. 7A: Biological activity of SP-333 incubated for varying lengths of time in simulated intestinal fluid (SIF). SP-333 samples incubated for 0, 5, 10, 30, 60, and 120 min, respectively, were tested for their ability to stimulate cGMP synthesis in T84 cells. The control sample marked as C120 was produced by incubating SP-333 with heat inactivated SIF for 120 min. Samples from the incubations were removed and heated at 95° C. for 5 min to inactivate digestive enzymes and then used to stimulate cyclic GMP synthesis in T84 cells. The cGMP stimulation activity in the sample at 0 min of incubation time in SIF was taken as 100% biological activity. The activities of the other SP-304 incubation samples were calculated as the percentage of activity relative to that of the 0 min sample. Data points shown are the average of triplicate measurements±SD.
as §1, with “FIG. 7B:” for “FIG. 7A:”, “of SP-332” for “of SP-333”, “incubating SP-332” for “incubating SP-333”
FIG. 7C: Biological activity of SP-304 incubated for varying lengths of time in simulated intestinal fluid (SIF). SP-304 samples incubated for 0, 10, and 60 min, respectively, were tested for their ability to stimulate cGMP synthesis in T84 cells. The control samples marked as C0 and C60 were produced by incubating SP-304 with heat inactivated SIF for 0 and 60 min, respectively. Samples from the incubations were removed and heated at 95° C. for 5 min to inactivate digestive enzymes and then used to stimulate cyclic GMP synthesis in T84 cells. The cGMP stimulation activity in the sample at 0 min of incubation time in SIF was taken as 100% biological activity. The activities of the other SP-304 incubation samples were calculated as the percentage of activity relative to that of the 0 min sample. […]
FIGS. 7G-1-7G-5: Incubation of SP-333 with SIF for 2, 6, 12 and 24 hrs. Effect of SIF digestion on the activity of SP-333 in T84 stimulation assay was determined (FIG. 7G-1) and samples were also analyzed by HPLC (FIGS. 7G2-5). […]
The stability of SP-304 was also evaluated after incubation with simulated intestinal fluid (SIF) by measuring its biological activity and by HPLC analyses (FIGS. 2A & 2B). […]

[3] = Stability in simulated intestinal fluid (SIF), HPLC analysis; format: in vitro ADME; conditions: SIF
Description: FIG. 2B: HPLC chromatographic spectra of SP-304 samples after incubation with: (A) heat-inactivated SIF for 300 minutes, or (B) SIF for 120 minutes. The arrows show the elution position of SP-304.
FIGS. 7D-1-7D-2: HPLC chromatograms of SP-304 incubated for 0 min in SIF (FIG. 7D-1) and 60 min in SIF (FIG. 7D-2), respectively. The arrows indicate the elution positions of the parent SP-304 peptides. […] These new peptide peaks represent degradation products of SP-304.
FIGS. 7E-1-7-E2: HPLC chromatograms of SP-332 incubated for 0 min in SIF (FIG. 7E-1) and 120 min in SIF (FIG. 7E-2), respectively. The arrows indicate the elution positions of the parent SP-332 peptides.
FIGS. 7F-1-7F-2: HPLC chromatograms of SP-333 incubated for 0 min in SIF (FIG. 7F-1) and 120 min in SIF (FIG. 7F-2), respectively. The arrows indicate the elution positions of the parent SP-333 peptides.
FIGS. 7G-1-7G-5: Incubation of SP-333 with SIF for 2, 6, 12 and 24 hrs. Effect of SIF digestion on the activity of SP-333 in T84 stimulation assay was determined (FIG. 7G-1) and samples were also analyzed by HPLC (FIGS. 7G2-5). The elution positions of the parent peptide and its metabolites are indicated by arrows.
The physical stability of SP-304 peptide exposed to SIF was evaluated by HPLC using the method described for SGF digestion. […]

[4] = target: T1, intestinal GC-C receptor (Homo sapiens, UniProt P25092); assay: Cyclic GMP stimulation assay in T84 cells; format: cell-based; conditions: 30 min exposure (FIG. 5)
T1 construct: confluent monolayers of T-84 cells in 24-well plates; host or cells: T84 human colon carcinoma cells
T1 sequence (P25092 24-1073): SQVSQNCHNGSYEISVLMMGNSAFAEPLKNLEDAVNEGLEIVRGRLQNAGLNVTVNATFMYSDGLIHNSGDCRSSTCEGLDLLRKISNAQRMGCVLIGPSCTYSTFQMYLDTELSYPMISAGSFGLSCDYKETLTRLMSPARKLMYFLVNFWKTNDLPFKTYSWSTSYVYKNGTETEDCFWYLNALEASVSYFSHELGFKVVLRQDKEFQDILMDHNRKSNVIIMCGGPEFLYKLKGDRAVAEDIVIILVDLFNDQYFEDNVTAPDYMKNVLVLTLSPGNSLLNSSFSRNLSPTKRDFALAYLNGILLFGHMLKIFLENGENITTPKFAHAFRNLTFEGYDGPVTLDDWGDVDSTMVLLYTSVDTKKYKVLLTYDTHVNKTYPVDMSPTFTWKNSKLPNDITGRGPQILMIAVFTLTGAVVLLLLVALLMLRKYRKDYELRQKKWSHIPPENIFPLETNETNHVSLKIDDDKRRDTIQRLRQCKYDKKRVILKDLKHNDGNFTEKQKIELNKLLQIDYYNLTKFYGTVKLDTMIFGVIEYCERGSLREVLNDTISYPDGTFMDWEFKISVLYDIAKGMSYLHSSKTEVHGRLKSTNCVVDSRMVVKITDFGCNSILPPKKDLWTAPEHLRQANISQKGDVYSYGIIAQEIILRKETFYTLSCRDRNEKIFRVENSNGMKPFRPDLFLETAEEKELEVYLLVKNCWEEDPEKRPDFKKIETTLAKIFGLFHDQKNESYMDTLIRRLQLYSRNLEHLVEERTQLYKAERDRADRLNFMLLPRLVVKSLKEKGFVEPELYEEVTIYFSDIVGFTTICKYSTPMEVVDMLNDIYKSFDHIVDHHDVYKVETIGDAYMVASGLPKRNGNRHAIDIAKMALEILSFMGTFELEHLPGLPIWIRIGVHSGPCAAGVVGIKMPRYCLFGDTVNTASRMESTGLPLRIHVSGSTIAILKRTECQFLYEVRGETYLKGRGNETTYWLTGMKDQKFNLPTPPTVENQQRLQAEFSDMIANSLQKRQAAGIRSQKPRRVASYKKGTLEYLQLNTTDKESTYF
Description: FIG. 4: Biological activity of truncated peptides of 16-mer SP-304, as measured by stimulation of cGMP synthesis in T84 cells. SP-338 15-mer peptide is indentical to SP-304 except that it lacks Leu at the C-terminus. SP-327, SP-329 and SP-331 lack Leu at their C-termini relative to their corresponding parents, SP-326, SP-328 and SP-330, respectively. Data points shown are the average of duplicate measurements.
FIG. 5: Stimulation of cGMP synthesis in T84 cells by SP-304 and similar analogs. T84 cells were exposed to test peptides for 30 min and cell lysates were then used to determine intracellular cGMP levels. Data points shown are the average of triplicate measurements±SD.
FIG. 6: Stimulation of cGMP synthesis in T84 cells by SP-339 (linaclotide) and other linaclotide analogs. T84 cells were exposed to test peptides for 30 min and cell lysates were then used to determine intracellular cGMP levels. Data points shown are the average of triplicate measurements±SD.
FIG. 8: Stimulation of cGMP synthesis in T84 cells by the peggylated analogs of SP-333. T84 cells were exposed to the indicated peptides for 30 min and cell lysates were used to determine intracellular cGMP levels. Data points shown are the average of triplicate measurements±SD.
After the 30 min incubation, the medium was aspirated and the reaction was terminated by the addition of 3% perchloric acid. Following centrifugation and the addition of NaOH (0.1 N) to neutralize the pH, intracellular cGMP levels were determined in lysates using a cGMP ELISA kit (Cat. No. 581021; Cayman Chemical, Ann Arbor, Mich.). Peptide incubations were run in duplicate, and samples taken from each incubation were run as duplicates in the ELISA test.
The ability of the GCC agonist peptide to bind to and activate the intestinal GC-C receptor was tested using T84 human colon carcinoma cell line. Human T84 colon carcinoma cells were obtained from the American Type Culture Collection. Cells were grown in a 1:1 mixture of Ham's F-12 medium and Dulbecco's modified Eagle's medium (DMEM) supplemented with 10% fetal bovine serum, 100 U penicillin/ml, and 100 μg/ml streptomycin. The cells were fed fresh medium every third day and split at a confluence of approximately 80%.
Biological activity of the GCC agonist peptides was assayed as previously reported (Shailubhai, et al., Cancer Research 60, 5151-5157 (2000)). Briefly, the confluent monolayers of T-84 cells in 24-well plates were washed twice with 250 μl of DMEM containing 50 mM HEPES (pH 7.4), pre-incubated at 37° C. for 10 min with 250 μl of DMEM containing 50 mM HEPES (pH 7.4) and 1 mM isobutylmethylxanthine (IBMX), followed by incubation with GCC agonist peptides (0.1 nM to 10 µM) for 30 min. The medium was aspirated, and the reaction was terminated by the addition of 3% perchloric acid. Following centrifugation, and neutralization with 0.1 N NaOH, the supernatant was used directly for measurements of cGMP using an ELISA kit (Caymen Chemical, Ann Arbor, Mich.).
An additional strategy to render peptides more resistant towards digestion by digestive proteases is to peggylate them at the N- and C-terminus. The peptide SP-333 was peggylated with the aminoethyloxy-ethyloxy-acetic acid (Aeea) group at the C-terminus (SP-347) or at the N-terminus (SP-350) or at both termini (SP-343). Cyclic GMP synthesis in T84 cells was measured by the method as described above.

Molecule	intracellular accumulation of cGMP, PDE inhibitor alone [1]	biological activity remaining after incubation in SIF [2]	HPLC analysis of parent peptide after incubation with SIF ([3]; 120 min)	degradation in SIF ([3]; up to 24 hours (FIG. 7G))	ability to stimulate cGMP synthesis in T84 cells relative to SP-304 [4]
CC1=C(CC(=O)O)c2cc(F)ccc2/C1=C\c1ccc(S(C)(=O)=O)cc1 [Sulindac Sulfone]	did not enhance	–	–	–	–
dAsn^1-Asp^2-Glu^3-Cys^4-Glu^5-Leu^6-Cys^7-Val^8-Asn^9-Val^10-Ala^11-Cys^12-Thr^13-Gly^14-Cys^15-dLeu^16 ([dN]DECELCVNVACTGC[dL]; disulfide (positions not given here); also: two disulfides, pairing not given here) [SP-333]	–	~100%	remained virtually intact	very little degradation	comparable ability
